Data on 13 sequences can be found in the supplement of paper PMC9233669.

For series [1], the system named is biotinyl-Phe-oxazolone. Description: self-aminoacylation, catalytic enhancement (BFO) (fold over background); higher = more active; k-Seq, kA / k0A0; sequences stand for … in GGGAAUGGAUCCACAUCUACGAAUUC…UUCACUGCAGACUUGACGAAGCUG
In short, it runs like this: (§1)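 Mutagenized RNA pools (0.43 μM; 21-nt variable region) were treated with 2–1250 μM of each biotinyl-aminoacyl-oxazolone. Conditions were 50 μL HEPES/NaCl/KCl/MgCl2/CaCl2 buffer, 5% acetonitrile, pH 6.9–7.0, room temperature, 90 minutes. Catalytic enhancement, the median kA relative to the uncatalyzed rate, was derived from streptavidin capture, qPCR and Illumina sequencing.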

For series [2], the system named is biotinyl-Ile-oxazolone. In words: self-aminoacylation, catalytic enhancement (BIO) (fold over background); higher = more active; k-Seq, kA / k0A0; sequences stand for … in GGGAAUGGAUCCACAUCUACGAAUUC…UUCACUGCAGACUUGACGAAGCUG
Put shortly: as §1

The test system of series [3] is biotinyl-Met-oxazolone. Description: self-aminoacylation, catalytic enhancement (BMO) (fold over background); higher = more active; k-Seq, kA / k0A0; sequences stand for … in GGGAAUGGAUCCACAUCUACGAAUUC…UUCACUGCAGACUUGACGAAGCUG
In short, it runs like this: as §1

For series [4], the system named is biotinyl-Val-oxazolone. Description: self-aminoacylation, catalytic enhancement (BVO) (fold over background); higher = more active; k-Seq, kA / k0A0; sequences stand for … in GGGAAUGGAUCCACAUCUACGAAUUC…UUCACUGCAGACUUGACGAAGCUG
In short, it runs like this:
as §1

In series [5] the test system is biotinyl-Leu-oxazolone. Description: self-aminoacylation, catalytic enhancement (BLO) (fold over background); higher = more active; k-Seq, kA / k0A0; sequences stand for … in GGGAAUGGAUCCACAUCUACGAAUUC…UUCACUGCAGACUUGACGAAGCUG
In short, it runs like this: as §1

Series [6] has as its system biotinyl-Trp-oxazolone. Description: self-aminoacylation, catalytic enhancement (BWO) (fold over background); higher = more active; k-Seq, kA / k0A0; sequences stand for … in GGGAAUGGAUCCACAUCUACGAAUUC…UUCACUGCAGACUUGACGAAGCUG
In short, it runs like this: as §1

This sample holds only a part of the variants without activity.

For “AUUCACCUAUGUCCUCGGGUG [Fam2.2 aminoacylation ribozyme variant]”, the self-aminoacylation in series [1] is 21.6; in series [2] it was 2.17; in series [3], 3.04; in series [4], 2.04; in series [5] it was 4.03; in series [6], 3.42.
As to “CUUCACCUAGGCCAUCGGGUG [Fam2.2 aminoacylation ribozyme variant]”, the self-aminoacylation in series [1] was 11.2; in series [2], 2.55; in series [3] it was 3.12; in series [4], 3.8; in series [5], 4.08; in series [6] it was 4.2.
For the sequence “ACUCACCUAGGUCAUCGCGUG [Fam2.2 aminoacylation ribozyme variant]”, the self-aminoacylation in series [1] amounted to 70; in series [2], 5.51; in series [3], 7.39; in series [4] it was 6.93; in series [5], 10.6; in series [6], 9.66.
Regarding “AUUCACCCAGGUCAUCUGGUG [Fam2.2 aminoacylation ribozyme variant]”, the self-aminoacylation in series [1] turned out to be 28.2; in series [2] it was 2.35; in series [3] it was 3.99; in series [4], 2.25; in series [5], 4.84; in series [6], 3.
On to “AUUCACCUAAGCCAUCGGGUG [Fam2.2 aminoacylation ribozyme variant]”, for which the self-aminoacylation in series [1] amounted to 26.6; in series [2] it was 2.55; in series [3], 3; in series [4], 3.24; in series [5], 4.62; in series [6] it was 3.01.
Consider “AAUAACCUGGUCAUCGAGUGA [Fam2.1 aminoacylation ribozyme variant]”, for which the self-aminoacylation is 9.51 in series [1]; 3.67 in series [2]; 5.9 in series [3]; 3.55 in series [4]; 5.79 in series [5]; 7.36 in series [6].
For the sequence “AAGUUCGCUAAUUGUCGCAAG [Fam3.1 aminoacylation ribozyme variant]”, the self-aminoacylation in series [1] is 3.26; in series [2], 1.68; in series [3], 1.3; in series [4], 1.7; in series [5] it was 2.06; in series [6] it was 1.51.
Regarding “GUUCCCCUGGUCAUCGAGUGA [Fam2.1 aminoacylation ribozyme variant]”, the self-aminoacylation in series [1] worked out at 43.4; in series [2], 3.35; in series [3], 5.84; in series [4], 3.82; in series [5], 6.48; in series [6] it was 7.5.
Consider “AAGUUUGGUAAUAGCCGCAAG [Fam3.1 aminoacylation ribozyme variant]”, for which the self-aminoacylation in series [1] worked out at 1.19; in series [2] it was 1.27; in series [3], 1.39; in series [4], 1.01; in series [5], 1.15; in series [6] it was 1.42.
On to “CUACUUCAAACAGUCGCUCUG [Fam1A.1 aminoacylation ribozyme variant]”, for which the self-aminoacylation worked out at 1.68 in series [1]; 1.12 in series [2]; 1.45 in series [3]; 1.25 in series [4]; 1.75 in series [5]; 1.09 in series [6].
In the case of “GUUACCCUGGUCAUCGAGUCA [Fam2.1 aminoacylation ribozyme variant]”, the self-aminoacylation stood at 1.64 in series [1]; 0.936 in series [2]; 1.26 in series [3]; 1.46 in series [4]; 1.28 in series [5]; 1.1 in series [6].
In the case of “AUUCCCAUAGGUCAUCGGGUG [Fam2.2 aminoacylation ribozyme variant]”, the self-aminoacylation in series [1] is 185; in series [2] it was 15.6; in series [3], 23.9; in series [4], 13.4; in series [5], 32.7; in series [6], 22.
With “GCACACUUCUAGCAAUCGGUC [Fam1B.1 aminoacylation ribozyme variant]”, the self-aminoacylation in series [1] was found to be 1.34; in series [2], 1.2; in series [3], 0.936; in series [4], 1.22; in series [5], 0.999; in series [6], 1.28.
